In patent publication US20190330336A1:

How the values were obtained:
[1] = target: HIS-tagged (ACRO) or biotinylated recombinant human LAG3 protein (human) (UniProt P18627); assay: FACS competition: antibody inhibits rhLAG3 binding to MHCII on DAUDI cells
[2] = target: human LAG3-Fc, R&D Systems #2319-L3 (human) (UniProt P18627); assay: SPR (Biacore), antibody captured on anti-Flag chip, human LAG3-Fc analyte, 25 C, 1:1 fit
Sequence of human LAG3-Fc, R&D Systems #2319-L3 (human) (P18627 23-450): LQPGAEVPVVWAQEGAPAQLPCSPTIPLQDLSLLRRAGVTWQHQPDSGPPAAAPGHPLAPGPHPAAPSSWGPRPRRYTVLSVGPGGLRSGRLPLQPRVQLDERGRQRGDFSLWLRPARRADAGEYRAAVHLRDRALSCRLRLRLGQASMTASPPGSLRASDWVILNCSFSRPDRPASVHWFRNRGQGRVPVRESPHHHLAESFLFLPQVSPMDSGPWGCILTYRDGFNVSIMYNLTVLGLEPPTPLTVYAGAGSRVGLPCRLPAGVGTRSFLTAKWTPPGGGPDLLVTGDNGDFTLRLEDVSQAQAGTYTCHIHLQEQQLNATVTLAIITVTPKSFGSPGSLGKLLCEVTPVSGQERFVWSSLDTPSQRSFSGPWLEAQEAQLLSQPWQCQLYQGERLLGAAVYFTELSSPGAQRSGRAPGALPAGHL

Sequence of HIS-tagged (ACRO) or biotinylated recombinant human LAG3 protein (human) (P18627 23-450 limits assumed): as the sequence (P18627 23-450) above

IC50 [1]: 0.0017 µM | Kd [2]: 0.0433 µM | koff [2]: 0.071 s⁻¹ | kon [2]: 1.64e+06 M⁻¹ s⁻¹
B1: SRP1627-A02 (scFv, from a related filing, V domains shown, part only)
VH: QVQLVQSGAEVKKPGSSVKVSCKASGFNINDYFMHWVRQAPGQGLEWIARIDPWNGDTEYAPKFQGRVTITADESTSTAYMELSSLRSEDTAVYYCGMSDALDYWGQGTLVTVSS
VL: DVVMTQSPLSLPVTLGQPASISCKSSQSLLDSDGKTYLNWFQQRPGQSPRRLIYLVSKLDSGVPDRFSGSGSGTDFTLKISRVEAEDVGVYYCSHGNPVPQTFGQGTKVEIK
